Experimental data reported in US20110105724A1 (published 2011).
Substitutions are numbered along the chain they refer to. Values belong to the binder of their own block, whether it stands above or below them.

What was measured:
[1] = target: T1, human IL-8 (interleukin-8) (human, UniProt P10145 28-99, limits assumed); experiment: SPR (Biacore T100, 25 C), antibody captured on anti-human IgG, IL-8 as analyte, 1:1 model, Run 1
T1 construct: also called recombinant human IL-8
T1 sequence (looked up): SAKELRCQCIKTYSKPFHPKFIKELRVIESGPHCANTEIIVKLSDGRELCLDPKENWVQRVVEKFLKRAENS
Source text: (§1) Briefly the method for Biacore analysis was as follows, anti human IgG (Biacore BR-1008-39) was immobilised on a CM5 sensor chip via primary amine coupling. The humanised or chimeric antibodies were captured on this surface at between 440-500 resonance units (RU's). IL8 was then passed over the captured antibody surface at defined concentrations with regeneration using 3M MgCl₂ after each cycle. A buffer injection over the antibody captured surface was used for double referencing. The run was carried out at 25° C. using HBS-EP buffer, on A Biacore T100 machine. The data was analysed using the 1:1 model in the analysis software inherent to the machine. Table below details the results from two separate runs. Run 1 used IL8 concentrations of 64 nM, 16 nM, 4 nM, 1 nM, 0.25 nM, whilst Run 2 used II8 concentrations 32 nM, 16 nM, 8 nM, 4 nM, 2 nM, 1 nM, 0.5 nM, 0.25 nM.

[2] = target: T1, human IL-8 (interleukin-8); experiment: SPR (Biacore T100, 25 C), antibody captured on anti-human IgG, IL-8 as analyte, 1:1 model, Run 2
Source text: as §1

[3] = target: T1, human IL-8 (interleukin-8); experiment: ELISA
recombinant human Groβ = target: T2, recombinant human Groβ (human, UniProt P19875 35-107); experiment: ELISA, hybridoma supernatant on immobilized recombinant chemokine
T2 construct: also called Gro-beta
T2 sequence (looked up): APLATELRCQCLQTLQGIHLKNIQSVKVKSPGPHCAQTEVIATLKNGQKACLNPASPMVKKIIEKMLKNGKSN
Source text: (§2) Hyridoma supernatants were screened for their antibody binding activities to recombinant human IL-8, Groβ and ENA-78, immobilized on ELISA plates. […] They were further assessed for their ability to recognize guinea pig and cynomolgus monkey orthologues. Selected hybridomas were cloned by limiting dilution cloning. The antibody designated 1C1.5E5 was one of the antibodies specific for human IL-8 that were selected for further analysis. Following humanization, the antibody combinations designated A0L0, A0L1, A0L2, AIL0, AIL1, and AIL2 also were determined to retain the ability to bind human IL-8.

recombinant human ENA-78 = target: T3, recombinant human ENA-78 (human, UniProt P42830 37-114); experiment: as above
T3 sequence (looked up): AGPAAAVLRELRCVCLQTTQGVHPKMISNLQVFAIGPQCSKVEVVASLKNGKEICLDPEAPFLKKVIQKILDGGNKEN
Source text: as §2

[4] = target: T1, human IL-8 (interleukin-8); experiment: SPR (Biacore T100/A100), mouse mAb captured on anti-mouse IgG-Fc, IL-8 as analyte, 1:1 model
Source text: Protein A or rabbit anti mouse IgG-Fc (Biacore BR-1005-14) was immobilised on a CM5 (Biacore BR-1000-14) chip by primary amine coupling in accordance with the manufactures instructions. Supernatant or purified from parental mouse mAb was captured on the antimouse IgG-Fc surface whilst chimeric antibody was captured on the Protein A surface. After capture defined concentrations of IL8 are passed over the antibody captured surface, a separate capture event was used for each analyte injection. […] An injection of buffer was also passed over the antibody captured surface and this was used for double referencing. For the analysis of the parental supernatant, an additional injection of an irrelevant mAb supernatant was injected over the antibody captured surface to detect any non-specific binding due to supernatant components. The data were analysed using the analysis software inherent to the machine, using the 1:1 model of binding. The work was carried out on the Biacore T100 or A100.

B1: humanized antibody A0L1 (antibody, human IgG1, kappa, V domains shown)
VH: QVQLVQSGAEVKKPGASVKVSCKASGYTFTSYWMHWVRQAPGQGLEWMGEIDPSDSNTNYNQKFKGRVTMTRDTSISTAYMELSRLRSDDTAVYYCARELLHAVYWGQGTLVTVSS
VL: DIQMTQSPSSLSASVGDRVTITCTASQDIHKYISWYQQKPGKAPKLLIHYTSTLQPGVPSRFSGSGSGTDFTFTISSLQPEDIATYYCLQYDNLWTFGQGTKVEIKR
notes: Humanized 1C1.5E5, human IgG1/kappa
Kd [1]: 0.0676 nM | koff [1]: 0.001 s⁻¹ | kon [1]: 1.49e+07 M⁻¹ s⁻¹ | Kd [2]: 0.0679 nM | koff [2]: 0.00106 s⁻¹ | kon [2]: 1.56e+07 M⁻¹ s⁻¹

B4: humanized antibody A1L0 (antibody, human IgG1, kappa, V domains shown)
VH: B1 VH with R67K
VL: B1 VL with H49Y, Y50D
notes: Humanized 1C1.5E5, human IgG1/kappa; also called AIL0
Kd [1]: 0.0872 nM | koff [1]: 0.000735 s⁻¹ | kon [1]: 8.43e+06 M⁻¹ s⁻¹ | Kd [2]: 0.0954 nM | koff [2]: 0.00075 s⁻¹ | kon [2]: 7.87e+06 M⁻¹ s⁻¹

B5: humanized antibody A0L2 (antibody, human IgG1, kappa, V domains shown)
VH: B1 VH
VL: B1 VL with F71Y
notes: as for B1
binding result [3]: binds

B6: humanized antibody A0L0 (antibody, human IgG1, kappa, V domains shown)
VH: B1 VH
VL: B1 VL with H49Y, Y50D
notes: as for B1
Kd [1]: 0.0712 nM | koff [1]: 0.000791 s⁻¹ | kon [1]: 1.11e+07 M⁻¹ s⁻¹ | Kd [2]: 0.0816 nM | koff [2]: 0.000772 s⁻¹ | kon [2]: 9.5e+06 M⁻¹ s⁻¹

B8: chimeric antibody HcLc made from murine 1C1.5E5 (antibody, human IgG1, kappa, V domains shown)
VH: QVQLQQPGVELVMPGASVKLSCKASGYTFTSYWMHWVKQRPGQGLEWIGEIDPSDSNTNYNQKFKGKATLTLDKSSSTAYMQLTSLTSEDSAVYYCARELLHAVYWGQGTLVTVSS
VL: DIQMTQSPSSLSASLGGKVTITCTASQDIHKYISWFQHKPGKGPRLLIHYTSTLQPGIPSRFSGSGSGRDYSFSISNLEPEDVATYYCLQYDNLWTFGGGTKLDIKR
notes: Murine variable regions on human IgG1 and human kappa constant regions; also called chimera
Kd [1]: 0.0184 nM | koff [1]: 0.000506 s⁻¹ | kon [1]: 2.75e+07 M⁻¹ s⁻¹ | Kd [2]: 0.0211 nM | koff [2]: 0.000566 s⁻¹ | kon [2]: 2.68e+07 M⁻¹ s⁻¹

Now from value to binder:

binding result [3]: binds
B2: humanized antibody A1L2 (antibody, human IgG1, kappa, V domains shown)
VH: B1 VH with R67K
VL: B1 VL with F71Y
notes: Humanized 1C1.5E5, human IgG1/kappa; also called AIL2

binding result [3]: binds
B3: humanized antibody A1L1 (antibody, human IgG1, kappa, V domains shown)
VH: B1 VH with R67K
VL: B1 VL
notes: Humanized 1C1.5E5, human IgG1/kappa; also called AIL1

binding result (recombinant human Groβ): no binding | binding result (recombinant human ENA-78): no binding | Kd [4]: 0.0454 nM | koff [4]: 0.000184 s⁻¹
B7: mouse monoclonal antibody 1C1.5E5 (antibody, V domains shown)
VH: B8 VH with L111T, V112L
VL: B8 VL
notes: also called 1C1.5E5 mAb
